Assay results published in the nanobody polyreactivity screen of Harvey et al. (2022).

assay: yeast display, Sf9 membrane polyspecificity reagent, FACS + sequencing; frameworks hold sequencing errors
Summary of the method: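 Polyreactivity labels are assigned by the sorting gate from which each nanobody was recovered. The gates were low and high (top ~1%), set on anti-HA fluorescence for expression and streptavidin fluorescence for reagent binding. Before sorting, galactose-induced (36–48 hours) yeast display cells were stained for 1 hour at 4 °C with 10% biotinylated, detergent-solubilized Sf9 membrane reagent.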

Sequence	polyreactivity (PSR sort gate)
QVQLVESGGGLVQAGGSLRLSCAGSGFTLDGYVMGWYRQAPGQEREFVAAIRSSGGSTRYADSVKGRFTISRDNAKNTVYLQMNSLKPEDTALYYSAAVAYYWGYEQWYDYWGQGTQVTVSS	high polyreactivity
QVQLVESGGGLVQAGGSLRLSCAGSGITFYWYAMGWDRQAPGKERELVAGISQSGSRTYYADSVKGRFTISRDNAKNTVYLQMNSLKPEDTAVYYCAARVRWSPTRTFEYWGQGTQVTVSS	high polyreactivity
QVQLVESGGGLVQAGGSLRLSCAGSGRTFWANTMGWYIQAPGKEREFVAAISGRDVSTYYADSVKGRFTISRDNAKNTVFLQMNSLKPEDTAVYYCAAQWQYLGHMGYWGQGTQVTVSS	low polyreactivity
QVQLVESGGGLVQAGGSLRLSCAGSGSISYFNAMGWYRQAPGKERELVAAISYSGGSTYYADSVKGRFTISRDNAKNTVYLQMNSLKPEDTAVYYCAADRLIGWRKTYYYWGQGTQVTVSS	high polyreactivity
QVQLVESGGGLVQAGGSLRLSCAGSGSTFKKYPMGWYREATGKEREFVAAISRGGRTYYADSVKGRFTSSRDNAKTTVYLQMNSLNPEDTAVYYCAADTFAYQEVYYWGQGTQVTVSS	high polyreactivity
QVQLVESGGGLVQAGGSLRLSCAGSGSTFRYYVLGWYRAAPGKDRVLVARITSAASTNYADSVKGRFTISRDNAKTTVNLQMNSLKPEDTPVYYCAADAYWIRSRFLYRIRYNYWGQGTQVTVSS	high polyreactivity
QVQLVESGGGLVQAGGSLRLSCAGSGSTFVYNAMGWYRQAPGKERELVAAITAAGGRTYYADSVKGRFTISRDTAKNTVYLQMNSLKPEDTAVYYCYTVRPHGMDYWGQGTQVTVSS	high polyreactivity
QVQLVESGGGLVQAGGSLRLSCAGSGSTFYRYALGWYRQAPGKEWEWVAVINSGCSTYYADSVKGRFTISRDNAKHTVYVQMNSMKPEDTAVSYCAAVRNQGGYVYGYGYWGQGTQVTVSS	high polyreactivity
QVQLVESGGGLVQAGGSLRLSCAHSASNFGIYAMGWYRQAPGKERELVAPITWYGTSTYYADSVKGRFTISRDNSKNSVYLQMNSLKPEDTAVYYCATAYIQVSATFYEYEYWGQGTQVTVSS	low polyreactivity
QVQLVESGGGLVQAGGSLRLSCAHSGSIFGQNAMGWYRHAPGKVRELVAAIRVSGGSTYYADSVKGRFTISRDNAKNTVYLQMNSLKPEDTAGYYCNARYRGYDGPITHGVTSYYWGQGTQVTVSS	low polyreactivity
QVQLVESGGGLVQAGGSLRLSCAPCGIIFTDYAMGWYRQAPGKERELVAAISSGGGSTYYADSVKGRFTISRDNAKNTVYLQMNSLKPEDTAVYYCNARSPYYSYLLHAYRVFDYWGQGTQVNVSS	high polyreactivity
QVQLVESGGGLVQAGGSLRLSCAPSGFIFGHNTMGWYRQAPGKECELVARITSSGGRTYYADSVKGRFTISRDNAKNTVYLQMNSLKPLDSAVYYCAAVSPNTAYDYWGQGTQVTVSS	high polyreactivity
QVQLVESGGGLVQAGGSLRLSCAPSGFTFDFYAMGWYRQEPGKATELFAAINSGGSTNYADSVKGRFTISRDNAKNTVYLQMNSLKPEDTAVYYCNADWFTPAQPWYRYFIRYDYWGQGSQVTVSS	low polyreactivity
QVQLVESGGGLVQAGGSLRLSCAPSGFTFGDYAMGWYRQAPGKERELVAAISWSGSNTYYADSVKGRFTLSRDNAKNTVYLQMNSLKPEDTAVYYCNADYDPEDMDYWGQGTQVTVSS	low polyreactivity
QVQLVESGGGLVQAGGSLRLSCAPSGFTFGYYAMGWYRQAPGKEMELVAAISSSGGSTYYADSVKGRFTISRDNAKKTVYLQMNSLKREVTAVYYCAVVVFSRVYRYFTSDYWGQGTQVTVSS	high polyreactivity
QVQLVESGGGLVQAGGSLRLSCAPSGFTFGYYAMGWYRQAPGKERELVAAITYSGGSTYYADSVKGRFTISRDNAKNTVYLQMNSLKPEDTAVYYCNAYDRRYYYGRWYGEFDYWGLGTQVTVSS	low polyreactivity
QVQLVESGGGLVQAGGSLRLSCAPSGFTFYKNAMGWYRQAPGKERELVAAITSSGGSTYYADSVKGRFTISRDNAKNTVYLQMNSLKPEDTAVYYCAAYPQAYIADYDYWGQGTQVTVSS	low polyreactivity
QVQLVESGGGLVQAGGSLRLSCAPSGFTLSTYAMGWYRQAPGKERELVAAISRSTDRTYYADSVKGRFTISRDNAKNTVYLQMNSLKPEDTAVYYCAAKSVYYLYRFYYWGQGSQVTVSS	high polyreactivity
QVQLVESGGGLVQAGGSLRLSCAPSGIIFYVYAIGWYRQAPGMERELVADITYGDRTNYADSVNGRFTISRDNAKNTVYLQMNSLKPEDTAVYYCAAKRNVLLGYTDQSLYDYWGQGTQVTVSS	low polyreactivity
QVQLVESGGGLVQAGGSLRLSCAPSGITFFYNTMGWYRQAPGKERELVAAISVSGGGTYYADSVKARFTISRDNAKNTVYLQMNSLKPEDTAVYYCNKVQVRQRRYDYWGQGTQVTVSS	low polyreactivity

Sequence	polyreactivity (PSR sort gate)
QVQLVESGGGLVQAGGSLRLSCAPSGLIFGRYAMGWYRQAPGKERELVAAISSSGVRTYYADSVKGRFTISRDNAKNTVYLQMNSLKPEDTAVYYCAAAYWSSREDTVIKRYYWGQGTQVTVSS	high polyreactivity
QVQLVESGGGLVQAGGSLRLSCAPSGLTYLYAMGWYRQAPGKETELVAAISSSGGSTYYADSVKGRFTISRDNAKNTVSLQMNSLNPEDTGVYYCAAYTRGWLGYDYWGQGTQVTVSS	high polyreactivity
QVQLVESGGGLVQAGGSLRLSCAPSGRIFEIYAMGWYRQAPGKESELVAAISWRGVSTYYADSVKGRFTISRDNAKNTVYLQMNSLKPEDTAVYYCNKDVDYFWYVEYDYWGQGTQVTVSS	low polyreactivity
QVQLVESGGGLVQAGGSLRLSCAPSGRIFGGYTMGGYRQAHGKVRELVASINSGGSTAYADSVKGRFTISRDNAKNTVYLQMNSLKPEDTAVYYCNAYLVYSYSPSHYYGFGYWGQGTQVTVSS	high polyreactivity
QVQLVESGGGLVQAGGSLRLSCAPSGRIFPRNAMGWYRQAPGKERELVAAITKSGGSTYYADSVKGRFTISRDNAKNTVYLQMNSLKPEDTAVYYCNAVQYRNYYWGQGTQVTVSS	high polyreactivity
QVQLVESGGGLVQAGGSLRLSCAPSGRIFRKYAMGWYRQAPGKERELVAAINSRGGRTYYADSVKGRFTISRDNAKKTVYLQMNSLKPEDTAVYYCAASVGWGMDYWGQGTQVTVSS	high polyreactivity
QVQLVESGGGLVQAGGSLRLSCAPSGRIFSYNTVMGWYRQAPGKERELVAAITYSSASTYYADSVKGRFTISRDNAKNTVYLQMNSLKPEDTAVYYCAAVRYERGLWSDYWGQGTQVTVSS	high polyreactivity
QVQLVESGGGLVQAGGSLRLSCAPSGRIFYGYAMGWYRQAPGKEREFVARINVSGTSTFYADSVKGRFTISRDNAKNTVYLQMNSLKPEDTAVYYCAARGLPSNYYYYVHGYIMDYWGQGTHVTVSS	low polyreactivity
QVQLVESGGGLVQAGGSLRLSCAPSGRILGYYAMGWYRQAPGKERELVAAISSGDSTNYADSVKGRFTISRDNAKYTVYLQMNSLKPEDTAVYYCAAKGWIWNAYNYWGQGTQVTVSS	low polyreactivity
QVQLVESGGGLVQAGGSLRLSCAPSGRILRGYAMGWYRQAPGKDRELVAAISRRGGSTRYADSVKGRFTISRDNAKNTVYLQMNSLKPEDTAVYYCAPRYHPWCYDYWGQGTQVTVSS	high polyreactivity
QVQLVESGGGLVQAGGSLRLSCAPSGRILWFYAMGWYRQAPGKERELVAAISSSSGRTYYADSVKGRFTISRDNAKNTVYLQMYILKPEDSAVYYCAATHAVARPLEYDYWGQGTHVTVSS	low polyreactivity
QVQLVESGGGLVQAGGSLRLSCAPSGRISGWYAMGWYRQAPGKQRELVASISSSGGSTYYADSVKGRFTISRDNAKNSVYLQMNSLKPEDTAVYYCAVRRYNWSFYRGYDYWGQGTQVTVSS	high polyreactivity
QVQLVESGGGLVQAGGSLRLSCAPSGRTFGYNVMGWYRQAPGKERELVAAISYSGGSTYYADSVKGRFTISRDNAKNTVYLQMNSLKPEDTAVYYCAATVLSWYGDYPVYYWGQGTQVTVSS	low polyreactivity
QVQLVESGGGLVQAGGSLRLSCAPSGRTFGYYGMGWYRQEPGKERELVASINFSSGSTFYADSVKGRFSISRDNAKNTVYLQMNSLKPEDTAVYYCAARAKAVRSYAYNYWGQGTQVTVSS	low polyreactivity
QVQLVESGGGLVQAGGSLRLSCAPSGRTFIFYAMGWSRQAPGKERELVAAISSSGSGTYYADSVKGRFTISRDNAKNTVYLQMNSLIPEDTAVYYCAADVVNSRRRPKYGYWGQGSQVTVSS	low polyreactivity
QVQLVESGGGLVQAGGSLRLSCAPSGRTFYSYAMGWYRHAPGKERELGAAITSSGGSTYYADSVKGRFTISRDNAKNTVYLQMNSLKPEDTAVYDCAAGKPYSSYWSWGYWTNLEDDYWGQGTQVNVSS	high polyreactivity
QVQLVESGGGLVQAGGSLRLSCAPSGRTLYGYAMGWYRQAPGKVSALVASFRSGGSTNYADSVKGRFTISLDNAKNTVYLQMNSLKPEDTAVYYCAADPYYSYGYYHAHGRDDGYWGQCTQVTVSS	low polyreactivity
QVQLVESGGGLVQAGGSLRLSCAPSGSIFKQYAMGWYRQAPGKERELVARITGSGGSTYYTDSVKGRFTISRDNAKNTVYLQMNSLKPEDTAVYYCNAGGRDAGYDYWGQGTQVTVSS	low polyreactivity
QVQLVESGGGLVQAGGSLRLSCAPSGSIFKYNTMGWYRQEPGKERELVATISGGGRTYYADSVKGRFTISRDNAKNTDYLQMNSLKPVDTAVYYCAARKRGNFTYDYWGQGTQVTVSS	high polyreactivity
QVQLVESGGGLVQAGGSLRLSCAPSGSIFPYAMGWYRQAPGKERELVAAITRSGASTYYADSVKGRFTISRDNAKNTVYLQLNSLKPEDTAVYYCAAYALRGVRYPYRVDFYYWGQGTQVTVSS	high polyreactivity
